How the values were obtained:
[1] = molecular target: amyloid-beta monomer (AbM) (UniProt P05067 672-711); test: FRET fluorescence recovery (displacement from Au NRs@PDA); 20 nM AbM; no obvious recovery; QD-aptamer conjugates (in deionized water) with 0.5 mg/mL Au NRs@PDA stock (55 uL to 20 uL), 30 min quench, then 120 min with protein at room temperature; excitation 405 nm; buffer, salt and pH not stated; conditions: protein: commercial; label: QDs665 (CdSe/CdS/ZnS) via 5' thiol
[2] = molecular target: amyloid-beta oligomer (AbO), from Abeta(1-40) peptide (UniProt P05067 672-711); test: FRET fluorescence recovery (displacement from Au NRs@PDA); Au NRs@PDA quencher; LOD 50 pM (not a Kd); QD-aptamer conjugates (in deionized water) with 0.5 mg/mL Au NRs@PDA stock (55 uL to 20 uL), 30 min quench, then 120 min with protein at room temperature; excitation 405 nm; buffer, salt and pH not stated; conditions: protein: commercial; label: QDs625 (CdSe/CdS/ZnS) via 5' thiol
Chain of amyloid-beta oligomer (AbO), from Abeta(1-40) peptide (P05067 672-711): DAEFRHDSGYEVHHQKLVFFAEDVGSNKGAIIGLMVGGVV

Chain of amyloid-beta monomer (AbM) (P05067 672-711): as above

Row | Binder | binding result [1] | binding result [2]
1 | GCGGAGCGTGGCAGG (ssDNA, 5'-HS-(CH2)6) [tau aptamer] | no binding | 
2 | GCCTGTGTTGGGGCGGGTGCG (ssDNA, 5'-HS-(CH2)6) [AbO aptamer] |  | binds

— publication PMC9697525, “A High-Quality CdSe/CdS/ZnS Quantum-Dot-Based FRET Aptasensor for the Simultaneous Detection of Two Different Alzheimer’s Disease Core Biomarkers”
